Measured values published in patent US20060177894A1 (published 2006).

B1: hCG-αK44A (ligand)
chain 1: not shown
chain 2: SKEPLRPRCRPINATLAVEKEGCPVCITVNTTICAGYCPTMTRVLQGVLPALPQVVCNYRDVRFESIRLPGCPRGVNPVVSYAVALSCQCALCRRSTTDCGGPKDHPLTCDDPRFQDSSSSKAPPPSLPSPSRLPGPSDTPILPQ
notes: mature; heterodimer from COS-7 medium; also called αK44A+hCGβ
B2: αK45C + β (ligand)
chain 1: not shown
chain 2: SKEPLRPRCRPINATLAVEKEGCPVCITVNTTICAGYCPTMTRVLQGVLPALPQVVCNYRDVRFESIRLPGCPRGVNPVVSYAVALSCQCALCRRSTTDCGGPKDHPLTCDDPRFQDSSSSKAPPPSLPSPSRLPGPSDTPILPQ
notes: mature; heterodimer from COS-7 medium; also called hCG-αK45C
B3: αY88C + β (ligand)
chain 1: not shown
chain 2: SKEPLRPRCRPINATLAVEKEGCPVCITVNTTICAGYCPTMTRVLQGVLPALPQVVCNYRDVRFESIRLPGCPRGVNPVVSYAVALSCQCALCRRSTTDCGGPKDHPLTCDDPRFQDSSSSKAPPPSLPSPSRLPGPSDTPILPQ
notes: mature; heterodimer from COS-7 medium; also called hCG-αY88C
B4: αS43C + β (ligand)
chain 1: not shown
chain 2: SKEPLRPRCRPINATLAVEKEGCPVCITVNTTICAGYCPTMTRVLQGVLPALPQVVCNYRDVRFESIRLPGCPRGVNPVVSYAVALSCQCALCRRSTTDCGGPKDHPLTCDDPRFQDSSSSKAPPPSLPSPSRLPGPSDTPILPQ
notes: mature; heterodimer from COS-7 medium; also called hCG-αS43C
B5: hCG-αM47A (ligand)
chain 1: not shown
chain 2: SKEPLRPRCRPINATLAVEKEGCPVCITVNTTICAGYCPTMTRVLQGVLPALPQVVCNYRDVRFESIRLPGCPRGVNPVVSYAVALSCQCALCRRSTTDCGGPKDHPLTCDDPRFQDSSSSKAPPPSLPSPSRLPGPSDTPILPQ
notes: mature; heterodimer from COS-7 medium
B6: αN52C + hCGβ-S138C (ligand)
chain 1: not shown
chain 2: SKEPLRPRCRPINATLAVEKEGCPVCITVNTTICAGYCPTMTRVLQGVLPALPQVVCNYRDVRFESIRLPGCPRGVNPVVSYAVALSCQCALCRRSTTDCGGPKDHPLTCDDPRFQDSSSSKAPPPSLPSPSRLPGPCDTPILPQ
notes: mature; disulfide αCys52-βCys138; lacks the αAsn52 oligosaccharide
B7: αK91C + hCGβ-S138C (ligand)
chain 1: not shown
chain 2: SKEPLRPRCRPINATLAVEKEGCPVCITVNTTICAGYCPTMTRVLQGVLPALPQVVCNYRDVRFESIRLPGCPRGVNPVVSYAVALSCQCALCRRSTTDCGGPKDHPLTCDDPRFQDSSSSKAPPPSLPSPSRLPGPCDTPILPQ
notes: mature; disulfide αCys91-βCys138
B8: αT86C + β (ligand)
chain 1: not shown
chain 2: SKEPLRPRCRPINATLAVEKEGCPVCITVNTTICAGYCPTMTRVLQGVLPALPQVVCNYRDVRFESIRLPGCPRGVNPVVSYAVALSCQCALCRRSTTDCGGPKDHPLTCDDPRFQDSSSSKAPPPSLPSPSRLPGPSDTPILPQ
notes: mature; heterodimer from COS-7 medium; also called hCG-αT86C
B9: αT46C + β (ligand)
chain 1: not shown
chain 2: SKEPLRPRCRPINATLAVEKEGCPVCITVNTTICAGYCPTMTRVLQGVLPALPQVVCNYRDVRFESIRLPGCPRGVNPVVSYAVALSCQCALCRRSTTDCGGPKDHPLTCDDPRFQDSSSSKAPPPSLPSPSRLPGPSDTPILPQ
notes: mature; heterodimer from COS-7 medium; also called hCG-αT46C
B10: αM47C + β (ligand)
chain 1: not shown
chain 2: SKEPLRPRCRPINATLAVEKEGCPVCITVNTTICAGYCPTMTRVLQGVLPALPQVVCNYRDVRFESIRLPGCPRGVNPVVSYAVALSCQCALCRRSTTDCGGPKDHPLTCDDPRFQDSSSSKAPPPSLPSPSRLPGPSDTPILPQ
notes: mature; heterodimer from COS-7 medium; also called hCG-αM47C
B11: αH90C + β (ligand)
chain 1: not shown
chain 2: SKEPLRPRCRPINATLAVEKEGCPVCITVNTTICAGYCPTMTRVLQGVLPALPQVVCNYRDVRFESIRLPGCPRGVNPVVSYAVALSCQCALCRRSTTDCGGPKDHPLTCDDPRFQDSSSSKAPPPSLPSPSRLPGPSDTPILPQ
notes: mature; heterodimer from COS-7 medium; also called hCG-αH90C
B12: hCG-αK91M (ligand)
chain 1: not shown
chain 2: SKEPLRPRCRPINATLAVEKEGCPVCITVNTTICAGYCPTMTRVLQGVLPALPQVVCNYRDVRFESIRLPGCPRGVNPVVSYAVALSCQCALCRRSTTDCGGPKDHPLTCDDPRFQDSSSSKAPPPSLPSPSRLPGPSDTPILPQ
notes: mature; heterodimer from COS-7 medium; also called αK91M+hCGβ
B13: αR42C + β (ligand)
chain 1: not shown
chain 2: SKEPLRPRCRPINATLAVEKEGCPVCITVNTTICAGYCPTMTRVLQGVLPALPQVVCNYRDVRFESIRLPGCPRGVNPVVSYAVALSCQCALCRRSTTDCGGPKDHPLTCDDPRFQDSSSSKAPPPSLPSPSRLPGPSDTPILPQ
notes: mature; heterodimer from COS-7 medium; also called hCG-αR42C
B14: αQ50C + hCGβ-S138C (ligand)
chain 1: not shown
chain 2: SKEPLRPRCRPINATLAVEKEGCPVCITVNTTICAGYCPTMTRVLQGVLPALPQVVCNYRDVRFESIRLPGCPRGVNPVVSYAVALSCQCALCRRSTTDCGGPKDHPLTCDDPRFQDSSSSKAPPPSLPSPSRLPGPCDTPILPQ
B15: αV53C + β (ligand)
chain 1: not shown
chain 2: SKEPLRPRCRPINATLAVEKEGCPVCITVNTTICAGYCPTMTRVLQGVLPALPQVVCNYRDVRFESIRLPGCPRGVNPVVSYAVALSCQCALCRRSTTDCGGPKDHPLTCDDPRFQDSSSSKAPPPSLPSPSRLPGPSDTPILPQ
notes: mature; heterodimer from COS-7 medium; also called hCG-αV53C
B16: αK44C + β (ligand)
chain 1: not shown
chain 2: SKEPLRPRCRPINATLAVEKEGCPVCITVNTTICAGYCPTMTRVLQGVLPALPQVVCNYRDVRFESIRLPGCPRGVNPVVSYAVALSCQCALCRRSTTDCGGPKDHPLTCDDPRFQDSSSSKAPPPSLPSPSRLPGPSDTPILPQ
notes: mature; heterodimer from COS-7 medium; also called hCG-αK44C
B17: αQ50C + β (ligand)
chain 1: not shown
chain 2: SKEPLRPRCRPINATLAVEKEGCPVCITVNTTICAGYCPTMTRVLQGVLPALPQVVCNYRDVRFESIRLPGCPRGVNPVVSYAVALSCQCALCRRSTTDCGGPKDHPLTCDDPRFQDSSSSKAPPPSLPSPSRLPGPSDTPILPQ
notes: mature; heterodimer from COS-7 medium; also called hCG-αQ50C
B18: αL48C + β (ligand)
chain 1: not shown
chain 2: SKEPLRPRCRPINATLAVEKEGCPVCITVNTTICAGYCPTMTRVLQGVLPALPQVVCNYRDVRFESIRLPGCPRGVNPVVSYAVALSCQCALCRRSTTDCGGPKDHPLTCDDPRFQDSSSSKAPPPSLPSPSRLPGPSDTPILPQ
notes: mature; heterodimer from COS-7 medium; also called hCG-αL48C
B19: αK91C + β (ligand)
chain 1: not shown
chain 2: SKEPLRPRCRPINATLAVEKEGCPVCITVNTTICAGYCPTMTRVLQGVLPALPQVVCNYRDVRFESIRLPGCPRGVNPVVSYAVALSCQCALCRRSTTDCGGPKDHPLTCDDPRFQDSSSSKAPPPSLPSPSRLPGPSDTPILPQ
notes: mature; heterodimer from COS-7 medium; also called hCG-αK91C
B20: αS92C + β (ligand)
chain 1: not shown
chain 2: SKEPLRPRCRPINATLAVEKEGCPVCITVNTTICAGYCPTMTRVLQGVLPALPQVVCNYRDVRFESIRLPGCPRGVNPVVSYAVALSCQCALCRRSTTDCGGPKDHPLTCDDPRFQDSSSSKAPPPSLPSPSRLPGPSDTPILPQ
notes: mature; heterodimer from COS-7 medium; also called hCG-αS92C
B21: hCG-αK44E, K45Q (ligand)
alpha: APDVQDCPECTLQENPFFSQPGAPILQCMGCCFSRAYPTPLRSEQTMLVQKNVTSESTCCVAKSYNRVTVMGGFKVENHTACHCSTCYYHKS
beta: SKEPLRPRCRPINATLAVEKEGCPVCITVNTTICAGYCPTMTRVLQGVLPALPQVVCNYRDVRFESIRLPGCPRGVNPVVSYAVALSCQCALCRRSTTDCGGPKDHPLTCDDPRFQDSSSSKAPPPSLPSPSRLPGPSDTPILPQ
modifications: Glycosylated heterodimer secreted by COS-7 cells; no engineered intersubunit disulfide.
notes: heterodimer from COS-7 medium; also called αK44E, K45Q+hCGβ
B22: αH90C + hCGβ-S138C (ligand)
chain 1: not shown
chain 2: SKEPLRPRCRPINATLAVEKEGCPVCITVNTTICAGYCPTMTRVLQGVLPALPQVVCNYRDVRFESIRLPGCPRGVNPVVSYAVALSCQCALCRRSTTDCGGPKDHPLTCDDPRFQDSSSSKAPPPSLPSPSRLPGPCDTPILPQ
notes: mature; disulfide αCys90-βCys138
B23: αV49C + β (ligand)
chain 1: not shown
chain 2: SKEPLRPRCRPINATLAVEKEGCPVCITVNTTICAGYCPTMTRVLQGVLPALPQVVCNYRDVRFESIRLPGCPRGVNPVVSYAVALSCQCALCRRSTTDCGGPKDHPLTCDDPRFQDSSSSKAPPPSLPSPSRLPGPSDTPILPQ
notes: mature; heterodimer from COS-7 medium; also called hCG-αV49C
B24: αS64C/hCG-βS138C (ligand)
chain 1: not shown
chain 2: SKEPLRPRCRPINATLAVEKEGCPVCITVNTTICAGYCPTMTRVLQGVLPALPQVVCNYRDVRFESIRLPGCPRGVNPVVSYAVALSCQCALCRRSTTDCGGPKDHPLTCDDPRFQDSSSSKAPPPSLPSPSRLPGPCDTPILPQ
notes: mature; disulfide αCys64-βCys138; also called hCGβS138C+αS64C

What was measured:
[1] = biological target: T1, rat lutropin receptor (LHR) (rat, UniProt P16235 27-700); test: inhibition of 125I-hCG binding to CHO cells with rat LHR; from IC50; native β-subunit analog
T1 construct: whole, on cells; also called LH receptor
T1 sequence (P16235 27-700): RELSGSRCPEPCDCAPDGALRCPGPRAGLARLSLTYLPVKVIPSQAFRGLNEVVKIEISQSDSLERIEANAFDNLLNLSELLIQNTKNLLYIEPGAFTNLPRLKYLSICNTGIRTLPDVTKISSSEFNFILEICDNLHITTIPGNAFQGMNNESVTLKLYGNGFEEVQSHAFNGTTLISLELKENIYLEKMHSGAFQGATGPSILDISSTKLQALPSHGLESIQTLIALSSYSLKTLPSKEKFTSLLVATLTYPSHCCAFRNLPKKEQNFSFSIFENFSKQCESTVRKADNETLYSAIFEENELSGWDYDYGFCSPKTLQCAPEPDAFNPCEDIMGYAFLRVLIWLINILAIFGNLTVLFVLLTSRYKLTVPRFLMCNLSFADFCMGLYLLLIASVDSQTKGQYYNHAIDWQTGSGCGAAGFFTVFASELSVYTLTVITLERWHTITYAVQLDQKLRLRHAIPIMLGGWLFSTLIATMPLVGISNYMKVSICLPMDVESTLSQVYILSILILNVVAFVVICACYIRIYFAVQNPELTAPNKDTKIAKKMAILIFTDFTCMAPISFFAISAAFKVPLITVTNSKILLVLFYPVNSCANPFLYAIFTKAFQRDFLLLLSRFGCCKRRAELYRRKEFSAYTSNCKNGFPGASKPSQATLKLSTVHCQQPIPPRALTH

[2] = biological target: T1, rat lutropin receptor (LHR); test: cell-based or functional assay
[3] = biological target: T1, rat lutropin receptor (LHR); test: inhibition of 125I-hCG binding to CHO cells with rat LHR; from IC50; acid-stable hCGβ-S138C analog

| Binder | Receptor-Binding potency (percent hCG) [1] | Signal Transduction potency (cAMP accumulation) [2] | Receptor-Binding potency (percent hCG) [3] | Signal transduction potency (cAMP accumulation), acid-stable analog [2] |
| --- | --- | --- | --- | --- |
| B1 | 84 % of hCG | – | – | – |
| B2 | 93 % of hCG | 91 % of hCG | – | – |
| B3 | 141 % of hCG | 74 % of hCG | – | – |
| B4 | 35 % of hCG | 74 % of hCG | – | – |
| B5 | 83 % of hCG | – | – | – |
| B6 | – | – | 61 % of hCG | – |
| B7 | – | – | 2.2 % of hCG | – |
| B8 | 95 % of hCG | 444 % of hCG | – | – |
| B9 | 38 % of hCG | 56 % of hCG | – | – |
| B10 | 8.7 % of hCG | 23 % of hCG | – | – |
| B11 | 30 % of hCG | 65 % of hCG | – | – |
| B12 | 68 % of hCG | 66 % of hCG | – | – |
| B13 | 113 % of hCG | 103 % of hCG | – | – |
| B14 | – | – | – | 308 % of hCG |
| B15 | 149 % of hCG | – | – | – |
| B16 | 66 % of hCG | 97 % of hCG | – | – |
| B17 | 81 % of hCG | 216 % of hCG | – | – |
| B18 | 60 % of hCG | 147 % of hCG | – | – |
| B19 | 41 % of hCG | 56 % of hCG | – | – |
| B20 | 100 % of hCG | 38 % of hCG | – | – |
| B21 | 58 % of hCG | 42 % of hCG | – | – |
| B22 | – | – | 3.1 % of hCG | 1 % of hCG |
| B23 | 70 % of hCG | 133 % of hCG | – | – |
| B24 | – | – | 89 % of hCG | – |
